According to publication PMC4750992, “A New Mutation, hap1-2, Reveals a C Terminal Domain Function in AtMago Protein and Its Biological Effects in Male Gametophyte Development in Arabidopsis thaliana” (PLoS ONE, 2016):

Biological target: T1, His-AteIF4AIII (Arabidopsis thaliana, UniProt Q94A52 1-408)
T1 construct: AteIF4AIII, Arabidopsis thaliana; cDNA amplified from qrt cDNAs with primers AteIF4AIIIFNdeI and AteIF4AIIIRSalI; Vector pET16b; also called His-eIF4AIII; source: E. coli BL21 (DE3) (pET16b), purified and eluted with ProBond beads
Assay: pull-down; MBP, MBP-AtMago or MBP-AtMagoΔC kept on amylose beads; purified His-Y14 or His-eIF4AIII diluted in Column Buffer (200 mM NaCl, 1 mM EDTA, 20 mM Tris-HCl, pH 7.4), 300 μL, on ice 1 hour; three washes; Western blot with anti-His or anti-MBP
Conditions: both partners purified

T1 sequence (Q94A52 whole entry): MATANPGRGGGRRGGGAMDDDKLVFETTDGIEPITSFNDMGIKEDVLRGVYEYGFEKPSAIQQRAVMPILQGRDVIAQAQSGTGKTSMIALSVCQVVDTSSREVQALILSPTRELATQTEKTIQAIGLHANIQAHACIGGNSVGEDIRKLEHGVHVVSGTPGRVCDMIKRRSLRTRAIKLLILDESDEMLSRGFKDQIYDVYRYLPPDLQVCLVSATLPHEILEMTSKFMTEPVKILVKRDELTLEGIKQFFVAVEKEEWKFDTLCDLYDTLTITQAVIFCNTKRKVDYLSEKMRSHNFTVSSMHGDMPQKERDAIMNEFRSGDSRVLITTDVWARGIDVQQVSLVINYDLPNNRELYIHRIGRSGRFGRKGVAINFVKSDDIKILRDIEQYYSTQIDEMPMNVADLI

binding result: binds
B1: MBP-AtMago (natural protein, Arabidopsis thaliana, UniProt O23676 1-150, looked up)
chain: MAAEEATEFYLRYYVGHKGKFGHEFLEFEFREDGKLRYANNSNYKNDTIIRKEVFLTPAVLKECKRIVSESEILKEDDNNWPEPDRVGKQELEIVLGNEHISFATSKIGSLVDCQSSNDPEGLRIFYYLVQDLKCLVFSLISLHFKIKPI
notes: AtMago (HAP1), Arabidopsis thaliana, full length protein of 150 amino acids; cDNA amplified from qrt;HAP1/hap1-2 cDNAs; Cloned BamHI/HindIII into pMAL-c2; also called HAP1; HAPLESS1
